Holding throughout (format): biochemical
Assay [1] deals with T1, Neosartorya fischeri NRRL 181 PepN 2 (aminopeptidase type 2) TRI031, SEQ ID NO: 1 (mature SEQ ID NO: 18) (Aspergillus fischeri, UniProt A1DJ89).
T1 construct: MEROPS M28.008
Briefly: Activity on Glu-pNA and Gln-pNA substrates. The following applies: 20 mM CPB-Buffer pH 9.0, 45° C., 405 nm. As for the experimental part:
(§1) H-Glu-Nitroanilid (pNA) and H-Gln-Nitroanilid (pNA) were used as substrates and the release of p-Nitroanilid (pNA) was measured by absorbance at 405 nm. As buffer 20 mM CPB-Buffer (20 mM Citric acid, 20 mM Na-phosphate, 20 mM Boric acid) pH 9.0 was used. 10 mg H-Glu-pNA and H-Gln-pNA (from BACHEM or Schafer N; Copenhagen, Denmark) were dissolved in 1 ml of DMSO (Dimethyl Sulphoxide from SIGMA; cat # D2650).
(§2) For running the assay 80 μL buffer, 10 μL H-Glu-pNA or H-Gln-pNA substrate and 10 uL appropriately diluted PepN 2 was incubated in Costar assay plate 9017 (Corning Inc.) at 45° C. and measured at 405 nm every 30 sec for 30 min in a VERSAMAX® microplate reader (Molecular Devices) running with SoftMaxPro 5.4.1 software. Activity was determined as the maximal slope of the linear part of the curve determined over 10 time points.

Assay [2] deals with T2, Aspergillus clavatus NRRL 1 PepN 2 (aminopeptidase type 2) TRI035, SEQ ID NO: 5 (mature SEQ ID NO: 22) (Aspergillus clavatus, UniProt A1CCU6).
T2 construct: MEROPS M28.008
T2 sequence (A1CCU6 entry or part of it): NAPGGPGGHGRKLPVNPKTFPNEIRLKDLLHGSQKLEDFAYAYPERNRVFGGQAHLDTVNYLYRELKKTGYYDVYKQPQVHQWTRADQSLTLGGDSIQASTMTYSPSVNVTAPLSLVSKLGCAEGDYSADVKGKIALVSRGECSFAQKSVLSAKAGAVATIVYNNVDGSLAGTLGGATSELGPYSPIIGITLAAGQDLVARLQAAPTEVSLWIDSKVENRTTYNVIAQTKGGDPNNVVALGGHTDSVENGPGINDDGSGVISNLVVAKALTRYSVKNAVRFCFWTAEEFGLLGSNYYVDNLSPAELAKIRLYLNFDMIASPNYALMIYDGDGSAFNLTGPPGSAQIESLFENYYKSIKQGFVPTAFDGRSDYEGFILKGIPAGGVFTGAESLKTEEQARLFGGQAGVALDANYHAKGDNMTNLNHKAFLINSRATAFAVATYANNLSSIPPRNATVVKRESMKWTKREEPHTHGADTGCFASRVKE
Briefly: Activity on Glu-pNA and Gln-pNA substrates. The following applies: 20 mM CPB-Buffer pH 9.0, 45° C., 405 nm. As for the experimental part: as §1, §2

For assay [3], the target named is T3, PepN 1 L. helveticus (Lactobacillus helveticus ATCC 12046), purified (Lactobacillus helveticus, UniProt Q10730).
T3 construct: made in house
T3 sequence (Q10730 1-844): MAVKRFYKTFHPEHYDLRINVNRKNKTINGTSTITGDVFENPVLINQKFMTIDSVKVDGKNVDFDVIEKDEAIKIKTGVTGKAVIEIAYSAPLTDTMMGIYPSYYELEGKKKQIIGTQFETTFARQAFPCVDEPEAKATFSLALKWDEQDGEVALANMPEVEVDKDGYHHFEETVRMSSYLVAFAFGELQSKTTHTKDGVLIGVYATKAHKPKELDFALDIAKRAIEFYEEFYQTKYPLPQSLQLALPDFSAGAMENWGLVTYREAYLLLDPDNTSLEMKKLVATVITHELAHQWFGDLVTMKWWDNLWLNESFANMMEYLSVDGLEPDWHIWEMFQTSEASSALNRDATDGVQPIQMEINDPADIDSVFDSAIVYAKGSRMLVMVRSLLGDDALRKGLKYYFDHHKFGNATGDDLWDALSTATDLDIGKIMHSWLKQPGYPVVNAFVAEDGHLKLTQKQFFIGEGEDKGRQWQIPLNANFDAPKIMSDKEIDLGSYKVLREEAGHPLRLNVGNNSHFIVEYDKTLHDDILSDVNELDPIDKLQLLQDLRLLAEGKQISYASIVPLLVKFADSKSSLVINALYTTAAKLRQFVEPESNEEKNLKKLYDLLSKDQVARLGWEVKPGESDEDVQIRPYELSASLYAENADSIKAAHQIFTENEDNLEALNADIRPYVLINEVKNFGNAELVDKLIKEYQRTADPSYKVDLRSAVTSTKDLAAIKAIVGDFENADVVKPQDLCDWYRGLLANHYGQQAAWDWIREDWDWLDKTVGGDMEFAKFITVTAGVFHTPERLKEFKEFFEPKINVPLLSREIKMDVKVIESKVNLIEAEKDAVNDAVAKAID
Briefly: Activity on Glu-pNA and Gln-pNA substrates. Particulars: 20 mM CPB-Buffer pH 9.0, 45° C., 405 nm.

The subject of assay [4] is PepN 1 A. sojae (COROLASE LAP), non-purified. Briefly: Activity on Glu-pNA and Gln-pNA substrates. The following applies: 20 mM CPB-Buffer pH 9.0, 45° C., 405 nm.
Assay [5] has as its system whey protein isolate (WPI). Briefly: Degree of hydrolysis of WPI with endopeptidases plus PepN. The following applies: 50° C., 18 hr. The protocol: Enzyme activities of PepN 1 Lactobacillus helveticus ATCC® 12046, PepN 1 Aspergillus oryzae and from PepN 2 from Aspergillus clavatus (TRI035) were determined according to Stressler, Eisele et al. (2013, infra). PepN 1 from L. helveticus was expressed and purified as described by Stressler, Eisele et al. (2013, infra).
The PepN 1 and 2 aminopeptidases were standardized to the activity range of 2.5-200 nkat*mL^−1. For protein hydrolyses, 1% (w/wWPI) FOODPRO® Alkaline Protease (DuPont, Brabrand, Denmark) and 1% (w/wWPI) FOODPRO® PNL (DuPont, Brabrand, Denmark) were added to the whey protein isolate suspension (WPI; LACPRODAN® 9224, Arla Ingredients, Viby, Denmark) with an initial pH of 7.0. Following the endopeptidases addition, the WPI was mixed and 200 μL were transferred to each well of a 96-well microtiter plate. The hydrolysis was conducted at 50° C. without pH control and terminated after 18 hr by addition of 20 μL of 2 M TCA. Prior to the determination of the DH (Nielsen, Petersen et al., 2001, infra), all samples were filtered 0.22 μm.

The subject of assay [6] is peptide TPAAAR (peptide library XPAAAR). Briefly: Hydrolysis of peptide with proline in position 2, LC-MS. The following applies: within 12 hr; peptide library 1 mg/mL, aminopeptidase 1 ug/mL, 55° C.; FIG. 10. As for the experimental part:
The peptide library XPAAAR (1 mg/mL) (SEQ ID NO:133) was incubated with 1 ug/mL of the aminopeptidase in 3×20 mM CPB-Buffer (20 mM Citric acid, 20 mM Phosphate, 20 mM Boric acid) at 55° C. 50 μL aliquots were stopped with 50 ul 5% TFA at the indicated time points and subjected to LC-MS analysis.
Capillary LC-MS/MS analyses were performed using an Agilent 1100 LC system (Agilent Technologies) interfaced to a LTQ Orbitrap Classic hybrid mass spectrometer (Thermo Scientific, Bremen, Germany). Samples were loaded onto a 15 cm Phenomenex Jupiter 4μ Proteo 90A, C4 analytical column. Separation was performed at a flow rate of 16 μL/min using a 10 min gradient of 0-40% Solvent B H2O/CH3CN/HCOOH (50/950/0.65 v/v/v) into the IONMAX® ion source (Thermo Scientific, San Jose). […] The peptide masses were measured by the Orbitrap (MS scans were obtained with a resolution of 60 000 at m/z 400), and up to 2 of the most intense peptide m/z were selected and subjected to fragmentation using CID in the linear ion trap (LTQ). […]
Label free quantification: The RAW files were accessed with the program Skyline 2.6.0.7176 (MacLean, B., et al., supra) which uses the MS1 intensities to build chromatograms (Schilling, B., et al., supra). […] Peptide sequences of the substrate as well as cleavage products were typed into Skyline and intensities were calculated in each sample. […]

T1 sequence (A1DJ89 entry or part of it): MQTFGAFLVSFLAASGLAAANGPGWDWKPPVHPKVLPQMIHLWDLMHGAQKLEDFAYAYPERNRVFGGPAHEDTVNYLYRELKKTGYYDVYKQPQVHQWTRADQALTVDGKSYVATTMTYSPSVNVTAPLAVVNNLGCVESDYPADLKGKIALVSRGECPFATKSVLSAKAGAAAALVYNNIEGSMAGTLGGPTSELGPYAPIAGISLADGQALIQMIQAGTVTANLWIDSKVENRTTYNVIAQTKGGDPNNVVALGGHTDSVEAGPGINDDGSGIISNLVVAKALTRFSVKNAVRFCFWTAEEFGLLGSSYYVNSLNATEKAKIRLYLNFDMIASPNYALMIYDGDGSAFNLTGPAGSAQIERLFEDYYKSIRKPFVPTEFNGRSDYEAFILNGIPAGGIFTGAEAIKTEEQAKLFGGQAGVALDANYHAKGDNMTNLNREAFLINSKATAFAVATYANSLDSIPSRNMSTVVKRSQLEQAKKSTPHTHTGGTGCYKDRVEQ

On to `NC(=O)CC[C@H](N)C(=O)Nc1ccc([N+](=O)[O-])cc1` [Gln-pNA, H-Gln-Nitroanilid], for which the “Vmax (Gln-pNA)” value in assay [1] was determined as 75.9 mU/min; in assay [2] it was 98.7 mU/min; in assay [3], 0 mU/min; in assay [4], 0 mU/min.

`N[C@@H](CCC(=O)O)C(=O)Nc1ccc([N+](=O)[O-])cc1` [Glu-pNA, H-Glu-Nitroanilid]: the “Vmax (Glu-pNA)” value in assay [1] was 50.8 mU/min; in assay [2], 20.1 mU/min; in assay [3], 0.02 mU/min; in assay [4] it was 0 mU/min.

B1: PepN 1: L. helveticus: PepN 1 from Lactobacillus helveticus ATCC 12046, expressed and purified as described by Stressler, Eisele et al. (2013) (protein, UniProt Q10730 1-844, looked up)
Aminopeptidase N: T3 sequence (Q10730 1-844)
Take B1: the Degree of hydrolysis is given as 18% in assay [5] (PepN dosage 2.5 nkat/mL in stock solution); 18% in assay [5] (PepN dosage 5 nkat/mL in stock solution); 20% in assay [5] (PepN dosage 10 nkat/mL in stock solution); 23% in assay [5] (PepN dosage 25 nkat/mL in stock solution); 23% in assay [5] (PepN dosage 50 nkat/mL in stock solution); 24% in assay [5] (PepN dosage 75 nkat/mL in stock solution). Further, the Degree of hydrolysis was determined as 28% in assay [5] (PepN dosage 100 nkat/mL in stock solution) and 27% in assay [5] (PepN dosage 200 nkat/mL in stock solution).

B2: TRI063 (A. oryzae): leucine aminopeptidase 2 from Aspergillus oryzae RIB40 (NCBI Reference Sequence: XP_001819545.1) (protein, listed as Aspergillus oryzae)
chain: MRSLLWASLLSGVLAGRALVSPDEFPEDIQLEDLLEGSQQLEDFAYAYPERNRVFGGKAHDDTVNYLYEELKKTGYYDVYKQPQVHLWSNADQTLKVGDEEIEAKTMTYSPSVEVTADVAVVKNLGCSEADYPSDVEGKVALIKRGECPFGDKSVLAAKAKAAASIVYNNVAGSMAGTLGAAQSDKGPYSAIVGISLEDGQKLIKLAEAGSVSVDLWVDSKQENRTTYNVVAQTKGGDPNNVVALGGHTDSVEAGPGINDDGSGIISNLVIAKALTQYSVKNAVRFLFWTAEEFGLLGSNYYVSHLNATELNKIRLYLNFDMIASPNYALMIYDGDGSAFNQSGPAGSAQIEKLFEDYYDSIDLPHIPTQFDGRSDYEAFILNGIPSGGLFTGAEGIMSEENASRWGGQAGVAYDANYHAAGDNMTNLNHEAFLINSKATAFAVATYANDLSSIPKRNTTSSLHRRARTMRPFGKRAPKTHAHVSGSGCWHSQVEA
As for B2, the “hydrolysis of TPAAAR” value in assay [6] is “no hydrolysis”.

The values above are taken from US11473073B2, “Aminopeptidases for protein hydrolyzates” (DUPONT NUTRITION BIOSCIENCES APS, priority 2015, dated 2022).
